Legend:
[1] = biological target: NKG2A on primary human NK cells (human) (UniProt P26715); assay: cell-based or functional assay
[2] = biological target: human NKG2A and human CD94 expressed on transiently transfected CHO-S cells (human) (UniProt Q13241); assay: blocking of PE-conjugated HLA-E pentamer binding to transiently transfected CHO-S cells, flow cytometry (percentage binding) [panel A hNKG2A]
[3] = biological target: cynomolgus NKG2A and cynomolgus CD94 expressed on transiently transfected CHO-S cells (cynomolgus) (UniProt Q68VD2); assay: blocking of PE-conjugated HLA-E pentamer binding to transiently transfected CHO-S cells, flow cytometry (percentage binding) [panel B cNKG2A]
[4] = biological target: cynomolgus NKG2C and cynomolgus CD94 expressed on transiently transfected CHO-S cells (cynomolgus); assay: blocking of PE-conjugated HLA-E pentamer binding to transiently transfected CHO-S cells, flow cytometry (percentage binding) [cont.), panel D cNKG2C]
[5] = biological target: I168S (Homo sapiens); assay: flow cytometry, CHO-S cells transiently transfected with NKG2A variant and CD94, AF647 goat anti-human IgG secondary (MFI) [cont.), panel monalizumab analogue (IgG4]
Sequence of I168S (Homo sapiens) (P26715 whole entry I168S): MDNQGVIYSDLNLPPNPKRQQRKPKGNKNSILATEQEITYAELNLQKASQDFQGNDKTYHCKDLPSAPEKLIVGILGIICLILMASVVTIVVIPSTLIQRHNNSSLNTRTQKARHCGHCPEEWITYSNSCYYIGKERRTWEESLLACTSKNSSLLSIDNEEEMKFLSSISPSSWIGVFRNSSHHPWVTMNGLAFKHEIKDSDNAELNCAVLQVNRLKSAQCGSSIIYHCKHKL

[6] = biological target: human NKG2A M189I / human CD94 heterodimer on CHO-S cells (human) (UniProt Q13241); assay: as above
Sequence of human NKG2A M189I / human CD94 heterodimer on CHO-S cells (human) (chain, as listed by the source M189I M189I, chain 1 of 2): as the sequence (P26715 whole entry I168S) above, with S168I, M189I counted along it
Sequence of human NKG2A M189I / human CD94 heterodimer on CHO-S cells (human) (Q13241 whole entry, chain 2 of 2): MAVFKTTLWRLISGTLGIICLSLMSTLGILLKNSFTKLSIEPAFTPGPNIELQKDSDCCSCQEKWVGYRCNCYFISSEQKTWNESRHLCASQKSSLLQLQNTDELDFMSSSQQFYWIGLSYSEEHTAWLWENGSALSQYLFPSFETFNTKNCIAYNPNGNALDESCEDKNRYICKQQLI

[7] = biological target: human NKG2A S167A+I168S+S170L / human CD94 heterodimer on CHO-S cells (human) (UniProt Q13241); assay: as above
Sequence of human NKG2A S167A+I168S+S170L / human CD94 heterodimer on CHO-S cells (human) (chain, as listed by the source S167A I168S S170L S167A I168S S170L, chain 1 of 2): as the sequence (P26715 whole entry I168S) above, with S167A, S170L counted along it
Sequence of human NKG2A S167A+I168S+S170L / human CD94 heterodimer on CHO-S cells (human) (Q13241 whole entry, chain 2 of 2): as the sequence (Q13241 whole entry, chain 2 of 2) above

[8] = biological target: human NKG2A S170L / human CD94 heterodimer on CHO-S cells (human) (UniProt Q13241); assay: as above
Sequence of human NKG2A S170L / human CD94 heterodimer on CHO-S cells (human) (chain, as listed by the source S170L S170L, chain 1 of 2): as the sequence (P26715 whole entry I168S) above, with S168I, S170L counted along it
Sequence of human NKG2A S170L / human CD94 heterodimer on CHO-S cells (human) (Q13241 whole entry, chain 2 of 2): as the sequence (Q13241 whole entry, chain 2 of 2) above

[9] = biological target: human NKG2A and human CD94 expressed on transiently transfected CHO-S cells (human) (UniProt Q13241); assay: as above
[10] = biological target: cynomolgus NKG2A and cynomolgus CD94 expressed on transiently transfected CHO-S cells (cynomolgus) (UniProt Q68VD2); assay: flow cytometry, transiently transfected CHO-S cells, AF647 goat anti-human IgG secondary (MFI) [cont.), panel monalizumab analogue (IgG1-LALA]
[11] = biological target: cynomolgus NKG2C and cynomolgus CD94 expressed on transiently transfected CHO-S cells (cynomolgus); assay: as above
[12] = biological target: human NKG2A and human CD94 expressed on transiently transfected CHO-S cells (human) (UniProt Q13241); assay: as above

Sequence of human NKG2A and human CD94 expressed on transiently transfected CHO-S cells (human) (chain, as listed by the source, chain 1 of 2): as the sequence (P26715 whole entry I168S) above, with S168I counted along it
Sequence of human NKG2A and human CD94 expressed on transiently transfected CHO-S cells (human) (Q13241 whole entry, chain 2 of 2): as the sequence (Q13241 whole entry, chain 2 of 2) above
Sequence of NKG2A on primary human NK cells (human) (P26715 whole entry): as the sequence (P26715 whole entry I168S) above, with S168I counted along it

| IC50 (read off the curve) [2] [ng/mL] | IC50 (read off the curve) [3] [ng/mL] | IC50 (read off the curve) [4] [ng/mL] | EC50 (read off the curve) [5] [ng/mL] | EC50 (read off the curve) [6] [ng/mL] | EC50 (read off the curve) [7] [ng/mL] | EC50 (read off the curve) [8] [ng/mL] | EC50 (read off the curve) [9] [ng/mL] | EC50 (read off the curve) [10] [ng/mL] | EC50 (read off the curve) [11] [ng/mL] | EC50 (read off the curve) [12] [ng/mL] | Substance | EC50 (ug/mL) of induced NK cell cytotoxicity, median (n = 6) [1] [µg/mL] |
| --- | --- | --- | --- | --- | --- | --- | --- | --- | --- | --- | --- | --- |
| 200 | 500 | 800 | 2 | 2 | 3 | 2 | 2 |  |  |  | Monalizumab Analogue (IgG4-S228P) (antibody) | 0.89 |
|  |  |  |  |  |  |  |  | 10 | 20 | 8 | monalizumab analogue (IgG1-LALA) (antibody) |  |

Source: patent publication US20240294638A1
